First the molecules themselves.
B1: SH3BP2 peptide 410-425 (SH3 domain-binding protein 2), 16-mer library wild type / TNKS ANK (TNKS 12 ANK repeats, residues 174-649) (parent complex)
chain 1: LPHLQRSPPDGQSFRS
chain 2: TGVPAVSGALRELLEACRNGDVSRVKRLVDAANVNAKDMAGRKSSPLHFAAGFGRKDVVEHLLQMGANVHARDDGGLIPLHNACSFGHAEVVSLLLCQGADPNARDNWNYTPLHEAAIKGKIDVCIVLLQHGADPNIRNTDGKSALDLADPSAKAVLTGEYKKDELLEAARSGNEEKLMALLTPLNVNCHASDGRKSTPLHLAAGYNRVRIVQLLLQHGADVHAKDKGGLVPLHNACSYGHYEVTELLLKHGACVNAMDLWQFTPLHEAASKNRVEVCSLLLSHGADPTLVNCHGKSAVDMAPTPELRERLTYEFKGHSLLQAAREADLAKVKKTLALEIINFKQPQSHETALHCAVASLHPKRKQVTELLLRKGANVNEKNKDFMTPLHVAAERAHNDVMEVLHKHGAKMNALDTLGQTALHRAALAGHLQTCRLLLSYGSDPSIISLQGFTAAQMGNEAVQQILSESTPIRTSD
B2: ATXN2 peptide 913-928 (Ataxin-2), 16-mer library wild type / PABPC1 PABC (PABPC1 PABC domain, residues 544-623) (parent complex)
chain 1: TLNPNAKEFNPRSFSQ
chain 2: PLTASMLASAPPQEQKQMLGERLFPLIQAMHPTLAGKITGMLLEIDNSELLHMLESPESLRSKVDEAVAVLQAHQAKEAA

In the first assay the parent is B1. Description: proteomic peptide phage display deep mutational scan (ProP-PD DMS): M13 P8 16-mer library selected against immobilised GST-tagged bait for four days (rounds), NGS of the eluted pools per day and pseudo-replica; bait immobilised on MaxiSorp plates (10 µg), library pre-cleared on GST, 2 h binding at 4 °C, five washes; one round per day, days 1-4; value from days 2 and 3.
In the case of chain 1 L1D, the screen value is 0.00232 average fractional NGS count over selection days 2 and 3 (reads of this peptide / all reads for the bait, averaged over ….
The same measure, in the same setting: for chain 1 L1N the value was 0.0011 average fractional NGS count over selection days 2 and 3 (reads of this peptide / all reads for the bait, averaged over …; for chain 1 L1V, 0.00338 average fractional NGS count over selection days 2 and 3 (reads of this peptide / all reads for the bait, averaged over ….
On the same count and under the same terms, as for chain 1 L1M, the figure is 0.00036 average fractional NGS count over selection days 2 and 3 (reads of this peptide / all reads for the bait, averaged over …; as for chain 1 S7M, 0.00193 average fractional NGS count over selection days 2 and 3 (reads of this peptide / all reads for the bait, averaged over ….
The same measure, in the same setting: as for chain 1 S7H, the figure is 0.000827 average fractional NGS count over selection days 2 and 3 (reads of this peptide / all reads for the bait, averaged over …; as for chain 1 S7Q, 0.00222 average fractional NGS count over selection days 2 and 3 (reads of this peptide / all reads for the bait, averaged over ….
With chain 1 S7F, the screen value is 0.00476 average fractional NGS count over selection days 2 and 3 (reads of this peptide / all reads for the bait, averaged over ….
Still for that read-out and setting: for chain 1 S7L the value was 0.00604 average fractional NGS count over selection days 2 and 3 (reads of this peptide / all reads for the bait, averaged over …; for chain 1 S7V, 0.00627 average fractional NGS count over selection days 2 and 3 (reads of this peptide / all reads for the bait, averaged over ….
Same read-out and setting: as for chain 1 S7N, the figure is 0.00621 average fractional NGS count over selection days 2 and 3 (reads of this peptide / all reads for the bait, averaged over …; as for chain 1 S7Y, 0.00213 average fractional NGS count over selection days 2 and 3 (reads of this peptide / all reads for the bait, averaged over ….
The same measure, in the same setting: as for chain 1 S7P, the figure is 0.00153 average fractional NGS count over selection days 2 and 3 (reads of this peptide / all reads for the bait, averaged over …; as for chain 1 Q5E, 0.000543 average fractional NGS count over selection days 2 and 3 (reads of this peptide / all reads for the bait, averaged over …; as for chain 1 Q5S, 0.000417 average fractional NGS count over selection days 2 and 3 (reads of this peptide / all reads for the bait, averaged over ….
For chain 1 Q5H, the screen value was 0.0031 average fractional NGS count over selection days 2 and 3 (reads of this peptide / all reads for the bait, averaged over ….
Same read-out and setting: as for chain 1 Q5F, the figure is 0.00256 average fractional NGS count over selection days 2 and 3 (reads of this peptide / all reads for the bait, averaged over ….
Still for that read-out and setting: for chain 1 Q5Y the value was 0.00141 average fractional NGS count over selection days 2 and 3 (reads of this peptide / all reads for the bait, averaged over …; for chain 1 Q5M, 0.00158 average fractional NGS count over selection days 2 and 3 (reads of this peptide / all reads for the bait, averaged over ….
Regarding chain 1 Q5N, the screen value was 0.000679 average fractional NGS count over selection days 2 and 3 (reads of this peptide / all reads for the bait, averaged over ….
Still for that read-out and setting: for chain 1 Q5L the value was 0.000257 average fractional NGS count over selection days 2 and 3 (reads of this peptide / all reads for the bait, averaged over ….
On the same count and under the same terms, as for chain 1 Q5G, the figure is 0.00123 average fractional NGS count over selection days 2 and 3 (reads of this peptide / all reads for the bait, averaged over ….
On to chain 1 Q5A, for which the screen value is 0.000231 average fractional NGS count over selection days 2 and 3 (reads of this peptide / all reads for the bait, averaged over ….
On the same count and under the same terms, for chain 1 Q5W the value was 0.000468 average fractional NGS count over selection days 2 and 3 (reads of this peptide / all reads for the bait, averaged over …; for chain 1 Q5T, 0.00193 average fractional NGS count over selection days 2 and 3 (reads of this peptide / all reads for the bait, averaged over ….
The same measure, in the same setting: as for chain 1 L4E, the figure is 0.00039 average fractional NGS count over selection days 2 and 3 (reads of this peptide / all reads for the bait, averaged over …; as for chain 1 L4P, 0.00111 average fractional NGS count over selection days 2 and 3 (reads of this peptide / all reads for the bait, averaged over …; as for chain 1 L4S, 0.000672 average fractional NGS count over selection days 2 and 3 (reads of this peptide / all reads for the bait, averaged over ….
Take chain 1 L4N: the screen value is 0.000501 average fractional NGS count over selection days 2 and 3 (reads of this peptide / all reads for the bait, averaged over ….
Same read-out and setting: as for chain 1 L4W, the figure is 0.00434 average fractional NGS count over selection days 2 and 3 (reads of this peptide / all reads for the bait, averaged over …; as for chain 1 L4Q, 0.000264 average fractional NGS count over selection days 2 and 3 (reads of this peptide / all reads for the bait, averaged over …; as for chain 1 L4G, 0.000123 average fractional NGS count over selection days 2 and 3 (reads of this peptide / all reads for the bait, averaged over ….
On the same count and under the same terms, for chain 1 L4Y the value was 0.000355 average fractional NGS count over selection days 2 and 3 (reads of this peptide / all reads for the bait, averaged over …; for chain 1 L4H, 0.000978 average fractional NGS count over selection days 2 and 3 (reads of this peptide / all reads for the bait, averaged over …; for chain 1 L4I, 0.00171 average fractional NGS count over selection days 2 and 3 (reads of this peptide / all reads for the bait, averaged over ….
Still for that read-out and setting: for chain 1 L4F the value was 0.00253 average fractional NGS count over selection days 2 and 3 (reads of this peptide / all reads for the bait, averaged over …; for chain 1 L4D, 0.00145 average fractional NGS count over selection days 2 and 3 (reads of this peptide / all reads for the bait, averaged over ….
Take chain 1 L4T: the screen value is 0.000821 average fractional NGS count over selection days 2 and 3 (reads of this peptide / all reads for the bait, averaged over ….
On the same count and under the same terms, as for chain 1 L4M, the figure is 0.0015 average fractional NGS count over selection days 2 and 3 (reads of this peptide / all reads for the bait, averaged over …; as for chain 1 P9A, 0.00156 average fractional NGS count over selection days 2 and 3 (reads of this peptide / all reads for the bait, averaged over ….
On the same count and under the same terms, as for chain 1 P9S, the figure is 0.000178 average fractional NGS count over selection days 2 and 3 (reads of this peptide / all reads for the bait, averaged over ….
Same read-out and setting: for chain 1 H3Q the value was 0.000537 average fractional NGS count over selection days 2 and 3 (reads of this peptide / all reads for the bait, averaged over ….
For the variant chain 1 H3I, the screen value was 0.000522 average fractional NGS count over selection days 2 and 3 (reads of this peptide / all reads for the bait, averaged over ….
Still for that read-out and setting: for chain 1 H3W the value was 0.000238 average fractional NGS count over selection days 2 and 3 (reads of this peptide / all reads for the bait, averaged over …; for chain 1 H3Y, 0.00044 average fractional NGS count over selection days 2 and 3 (reads of this peptide / all reads for the bait, averaged over …; for chain 1 H3V, 0.00187 average fractional NGS count over selection days 2 and 3 (reads of this peptide / all reads for the bait, averaged over ….
On the same count and under the same terms, for chain 1 H3N the value was 0.000146 average fractional NGS count over selection days 2 and 3 (reads of this peptide / all reads for the bait, averaged over …; for chain 1 H3F, 0.000397 average fractional NGS count over selection days 2 and 3 (reads of this peptide / all reads for the bait, averaged over ….
Still for that read-out and setting: for chain 1 H3M the value was 0.0014 average fractional NGS count over selection days 2 and 3 (reads of this peptide / all reads for the bait, averaged over …; for chain 1 H3G, 0.000244 average fractional NGS count over selection days 2 and 3 (reads of this peptide / all reads for the bait, averaged over …; for chain 1 D10V, 0.00049 average fractional NGS count over selection days 2 and 3 (reads of this peptide / all reads for the bait, averaged over ….
Consider chain 1 D10Q, for which the screen value was 0.00104 average fractional NGS count over selection days 2 and 3 (reads of this peptide / all reads for the bait, averaged over ….
The same measure, in the same setting: as for chain 1 D10E, the figure is 0.00381 average fractional NGS count over selection days 2 and 3 (reads of this peptide / all reads for the bait, averaged over …; as for chain 1 D10A, 0.000226 average fractional NGS count over selection days 2 and 3 (reads of this peptide / all reads for the bait, averaged over …; as for chain 1 D10I, 0.000221 average fractional NGS count over selection days 2 and 3 (reads of this peptide / all reads for the bait, averaged over ….
Still for that read-out and setting: for chain 1 D10P the value was 0.00059 average fractional NGS count over selection days 2 and 3 (reads of this peptide / all reads for the bait, averaged over …; for chain 1 S13P, 0.00144 average fractional NGS count over selection days 2 and 3 (reads of this peptide / all reads for the bait, averaged over ….
As to chain 1 S13A, the screen value is 0.000295 average fractional NGS count over selection days 2 and 3 (reads of this peptide / all reads for the bait, averaged over ….
The same measure, in the same setting: as for chain 1 S13E, the figure is 0.00174 average fractional NGS count over selection days 2 and 3 (reads of this peptide / all reads for the bait, averaged over ….
The same measure, in the same setting: as for chain 1 S13Y, the figure is 0.00204 average fractional NGS count over selection days 2 and 3 (reads of this peptide / all reads for the bait, averaged over …; as for chain 1 S13V, 0.00486 average fractional NGS count over selection days 2 and 3 (reads of this peptide / all reads for the bait, averaged over …; as for chain 1 S13H, 0.00169 average fractional NGS count over selection days 2 and 3 (reads of this peptide / all reads for the bait, averaged over ….
Still for that read-out and setting: for chain 1 S13N the value was 0.000503 average fractional NGS count over selection days 2 and 3 (reads of this peptide / all reads for the bait, averaged over …; for chain 1 S13F, 0.000366 average fractional NGS count over selection days 2 and 3 (reads of this peptide / all reads for the bait, averaged over …; for chain 1 S13I, 0.0065 average fractional NGS count over selection days 2 and 3 (reads of this peptide / all reads for the bait, averaged over ….

Variants of B2 are the subject of a further assay. The description is as above.
chain 1 S13D: the screen value is 0.00111 average fractional NGS count over selection days 2 and 3 (reads of this peptide / all reads for the bait, averaged over ….
The same measure, in the same setting: for chain 1 N5D the value was 0.00049 average fractional NGS count over selection days 2 and 3 (reads of this peptide / all reads for the bait, averaged over ….
Same read-out and setting: for chain 1 T1I the value was 0.000134 average fractional NGS count over selection days 2 and 3 (reads of this peptide / all reads for the bait, averaged over ….
Same read-out and setting: for chain 1 T1D the value was 0.00327 average fractional NGS count over selection days 2 and 3 (reads of this peptide / all reads for the bait, averaged over …; for chain 1 R12T, 0.00189 average fractional NGS count over selection days 2 and 3 (reads of this peptide / all reads for the bait, averaged over …; for chain 1 R12I, 0.00122 average fractional NGS count over selection days 2 and 3 (reads of this peptide / all reads for the bait, averaged over ….
In the case of chain 1 P11V, the screen value was 0.00178 average fractional NGS count over selection days 2 and 3 (reads of this peptide / all reads for the bait, averaged over ….
The same measure, in the same setting: for chain 1 N10T the value was 0.00052 average fractional NGS count over selection days 2 and 3 (reads of this peptide / all reads for the bait, averaged over ….
As to chain 1 E8Q, the screen value was 0.000543 average fractional NGS count over selection days 2 and 3 (reads of this peptide / all reads for the bait, averaged over ….
Same read-out and setting: as for chain 1 S15D, the figure is 0.000508 average fractional NGS count over selection days 2 and 3 (reads of this peptide / all reads for the bait, averaged over ….

The values are drawn from article PMC12102759 (2025).
